Test results from the supplement of paper PMC9233669.
This sample holds only a part of the variants without activity.

How the values were obtained:
biotinyl-Trp-oxazolone = experiment: self-aminoacylation, catalytic enhancement (BWO) (fold over background); higher = more active; k-Seq, kA / k0A0; sequences stand for … in GGGAAUGGAUCCACAUCUACGAAUUC…UUCACUGCAGACUUGACGAAGCUG
Summary of the method: (§1)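 Each biotinyl-aminoacyl-oxazolone, at 2–1250 μM, was incubated with mutagenized RNA pools (0.43 μM) carrying a 21-nt variable region. The 50 μL reactions contained HEPES/NaCl/KCl/MgCl2/CaCl2 buffer with 5% acetonitrile at pH 6.9–7.0 and ran for 90 minutes at room temperature. After streptavidin capture, RNA was measured by qPCR in triplicate and by Illumina sequencing, and catalytic enhancement was calculated as median kA over the uncatalyzed rate from a pseudo-first-order fit of per-sequence fraction reacted.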

biotinyl-Leu-oxazolone = experiment: self-aminoacylation, catalytic enhancement (BLO) (fold over background); higher = more active; k-Seq, kA / k0A0; sequences stand for … in GGGAAUGGAUCCACAUCUACGAAUUC…UUCACUGCAGACUUGACGAAGCUG
Summary of the method: as §1

biotinyl-Ile-oxazolone = experiment: self-aminoacylation, catalytic enhancement (BIO) (fold over background); higher = more active; k-Seq, kA / k0A0; sequences stand for … in GGGAAUGGAUCCACAUCUACGAAUUC…UUCACUGCAGACUUGACGAAGCUG
Summary of the method: as §1

biotinyl-Met-oxazolone = experiment: self-aminoacylation, catalytic enhancement (BMO) (fold over background); higher = more active; k-Seq, kA / k0A0; sequences stand for … in GGGAAUGGAUCCACAUCUACGAAUUC…UUCACUGCAGACUUGACGAAGCUG
Summary of the method: as §1

biotinyl-Phe-oxazolone = experiment: self-aminoacylation, catalytic enhancement (BFO) (fold over background); higher = more active; k-Seq, kA / k0A0; sequences stand for … in GGGAAUGGAUCCACAUCUACGAAUUC…UUCACUGCAGACUUGACGAAGCUG
Summary of the method: as §1

biotinyl-Val-oxazolone = experiment: self-aminoacylation, catalytic enhancement (BVO) (fold over background); higher = more active; k-Seq, kA / k0A0; sequences stand for … in GGGAAUGGAUCCACAUCUACGAAUUC…UUCACUGCAGACUUGACGAAGCUG
Summary of the method: as §1

Sequence	self-aminoacylation (biotinyl-Trp-oxazolone)	self-aminoacylation (biotinyl-Leu-oxazolone)	self-aminoacylation (biotinyl-Ile-oxazolone)	self-aminoacylation (biotinyl-Met-oxazolone)	self-aminoacylation (biotinyl-Phe-oxazolone)	self-aminoacylation (biotinyl-Val-oxazolone)
AUUGACCUAGGUCAUCGGGUA [Fam2.2 aminoacylation ribozyme variant]	31.5	59.5	20.4	47.1	355	16.7
AUUGACCUAGGUCAUCGUGUG [Fam2.2 aminoacylation ribozyme variant]	1.35	1.36	1.36	1.04	4.26	1.18
AUUGACCUAUGUCAUCGGGUG [Fam2.2 aminoacylation ribozyme variant]	5.17	7.74	3.81	5.68	28.4	3.64
AUUGAUCUAGGUCAUCGGGUG [Fam2.2 aminoacylation ribozyme variant]	7.06	7.89	4.45	6.53	35.2	3.8
AUUGCACUGGUCAUCGAGUGA [Fam2.1 aminoacylation ribozyme variant]	6.67	6.88	3.68	6.01	32.7	3.93
AUUGCCCCGGUCAUCGAGUGA [Fam2.1 aminoacylation ribozyme variant]	6.57	6.75	2.79	5.22	37.5	3.18
AUUGCCCUGGGCAUCGAGUGA [Fam2.1 aminoacylation ribozyme variant]	7.29	8.04	2.96	6.92	44.5	3.27
AUUGCCCUGGUAAUCGAGUGA [Fam2.1 aminoacylation ribozyme variant]	9.18	7.99	3.71	8.63	56	3.92
AUUGCCCUGGUCAUCGACUGA [Fam2.1 aminoacylation ribozyme variant]	1.35	0.735	0.899	0.941	1.08	0.951
AUUGCCCUGGUCAUCGAGAGA [Fam2.1 aminoacylation ribozyme variant]	0.807	1.5	1.2	1.39	1.73	1.2
AUUGCCCUGGUCAUCGAGUAA [Fam2.1 aminoacylation ribozyme variant]	8.07	8.75	3.56	8.54	28.4	4.02
AUUGCCGUGGUCAUCGAGUGA [Fam2.1 aminoacylation ribozyme variant]	5.71	6.18	2.89	4.92	33.7	3.45
AUUUAACUAGGUCAUCGGGUG [Fam2.2 aminoacylation ribozyme variant]	3.75	5.03	2.6	4.3	31.4	2.72
